{"source": "a protein production outcome set (Wang et al. 2014)", "test": "label from the status in PepcDB records", "data": [{"sequence": "TIDLRMQQYAEEAMVKQMKEVLQPIFDKEKRGRSYAPFSRDITSDEQRSILLRAMKQTDRWREMKKAGISESEIRASFNKKRKMQVWNWRGTIDTVMSPLDSIKYLKGILRTGFMAMNPHNGHIKAYVGGINFRNFQYDMVSQGRRQVGSTIKPFLYSLSMLEGISPCDEMLHVSQTLFTESGKAWTPKNTGARRTGEMVSIKWGLQNSSNWVTAYLMGRTSPYTFVRLLRSYGLSGYLEPSLSICLGTPDVSVQEMVSAYTTFVNKGIRVNPLPITRIEDQYGNVVAQFSPNMVEVLPPDAAYKMLYMLKSVVDGGTGSRLRYRYGFKLDMGGKTGTTQNNSDGWFVGFTPSLVAGCWVGGEDRSVHFDSMSNGQGAASALPIFAEFLKRVYADPKLGYTTE", "values": [{"measurement": "protein production", "result": "failed"}]}, {"sequence": "MPECRNCGATLREEYRFCPMCATPQTDEASRRLNQYIEQRATKRQASGGTASSNGAENDGTLRGRLQYAAGYVAIVLGLATVTAVAGVFFLLAGLFLLPPIHGRIESAVGRRLGPAPTAGVAGVLAAFGLVVFVFL", "values": [{"measurement": "protein production", "result": "failed"}]}, {"sequence": "MTLSKQLKTYITERFKLNYQDTWSCETVDAVAEDVLPEKYIKNSPLEHKILNTFTYYNDELHEISIYPFLCYLDKELIAIGYLDNFDLDFIFLNDTHQIIIDERYLLQKGGELEHHHHHH", "values": [{"measurement": "protein production", "result": "failed"}]}, {"sequence": "MKKRHLLIAGLACMTILGACNNDDAGSSGQAVVEVDGHEISDAEFVDMLKERYGEAILQELVQRHLISQAADSVEIPQEEIDEELETFKSQIGVETDDEMLDALSNQFGITVENKEEFVNEYILPPLVLEKLAVEGVEITDEEKQAYFDENRDSLIEVEASHILVEDEETAEEVLDRLEAGDDFAELASEYSVDPSAEANNGDLGFFGKGDMVPEFEEAAFNMEIDEVSEPVESTYGYHIILVTDRKDSYEELEEKIHDTLMRERSRTQEEVLRDLLAQADINVLDDQFEGLFDLPDAPPVEDTPEIDGEDASDEAEDQAEDADENAEEEDES", "values": [{"measurement": "protein production", "result": "failed"}]}, {"sequence": "MVLFHLIKKESLQIFRNRTALLMMVIFPILMIVILSFAFKSSFNTATTVPKLTIRYQLEGEKTDYQKNFLAFLKVLNQKLHLETKPSNSLEKDRQRVSEGALTAVLEVKKNQTIKVITNNINQQNADLINMLVKNYVDNAKTYDSIAALYPQQLNHIRKRSVDYVKVSSIQTSKGMTSADYYAISMFTMITFYSMMSAMNLVLSDRQQRITNRIHLTGVSPSFLVFGKLIGAMLATTVQLSLLYIFTRFVLRVNWGTNEWMLIGITASLVYLSVAIGIGLGISIKNEAFLTVASNTIIPIFAFLGGSYVPLTTLHSSIINQLSNISPIKWVNDSLFYLIFGGQYNPIPVTLIVNISIGTIFIILALIGMRKQVTT", "values": [{"measurement": "protein production", "result": "failed"}]}, {"sequence": "ANLYWFRADWFERPDLKKKFKDKYGYELGVPVNWSAYEDIAKFFSEDVKEIDGKKVFGHMDYGKKDPSLGWRFTDAWFSMAGSGDKGLPNGLPVDEWGIRVEDCHPVGSSITRGGDTNGPAAVFATQKYIDWLKAYAPPEAAGMTFSESGPVPSQGNVAQQIFWYTAFTADMTKPGLPVMNADGTPKWRMAPSPKGPYWKEGMKLGYQDVGSWTFLKSSDEKKRLAAWLYAQFVTSKSVSLKKTIVGLTPIRESDINS", "values": [{"measurement": "protein production", "result": "failed"}]}, {"sequence": "TFEEDDNMERAAVTGIAFDKNQARINVRGVPDKPGVAYQILGAVADANIEVDMIIQNVGSEGTTDFSFTVPRGDYKQTLEILSERQDSIGAASIDGDDTVCKVSAVGLGMRSHVGVAAKIFRTLAEEGINIQMISTSEIKVSVLIDEKYMELATRVLHKAFNLG", "values": [{"measurement": "protein production", "result": "not failed"}]}, {"sequence": "STRRVSVRDKLLVKEVAELEANLPCTCKVHFPDPNKLHCFQLTVTPDEGYYQGGKFQFETEVPDAYNMVPPKVKCLTKIWHPNITETGEICLSLLREHSIDGTGWAPTRTLKDVVWGLNSLFTDLLNFDDPLNIEAAEHHLRDKEDFRNKVDDYIKRYAR", "values": [{"measurement": "protein production", "result": "not failed"}]}, {"sequence": "MERYTKKNERFKAEEGKGSKKSRTFLTERERRALFNDRFFDLKNLIPNPTKGGEASIVQDGIVYINELQRLVSELKYLVEKKKCGARHNNIEVDNKNTIYGTSKIEHPFSKNKNTFNCLIRTLRFVHHF", "values": [{"measurement": "protein production", "result": "failed"}]}, {"sequence": "MPVAVVANPKGGVGKTTLATNLAGYFAARDHAVMLGDTDRQQSSREWLALRPATARPIHTWDISADHIAKPPKGTTHVVLDTPAGLHGWRLADLIRLAGHVIVPLQPSMFDILATQAFLCKLADEKPVRHGEAKVGVVGMRVDMRTRAAEQLQRFVQGLQIPILGYLRDTQNYVQLAAHGLTLWDVAPSRVARDVEQWRGILDWMAPGGITASPDSM", "values": [{"measurement": "protein production", "result": "failed"}]}, {"sequence": "MNASTSPLPASDQTLRGILLICAAVFLFASHDGLSKFLSGFYPIVMVVWARYLVHTLLMVAVFVPRNGLAVIRSRRPLMQLARALCLIGTSLFFTTGLRYLPLAEATAVNFLAPLLVTALSVPLLKEKVSLGQWLAVLTGFIGVLFIVRPGGALFTPAALFPLGSALCFGLYQLLTRMLANSDSPTTSNFLAGIFNTLIMSLLVPFFWQTPSLLHGLMMIALGGCGMGGHLLLTQAFRHAPPATLAPFSYGQIIFAGLLGLLVFGHVPDAWALLGILVICASGLVVAWRRGR", "values": [{"measurement": "protein production", "result": "failed"}]}, {"sequence": "MTTCAPAVPAQLDVAGDLLALLRDTTTEPRPDIQLEALTLAVAADLPVLLWGEPGIGKTAALTQLATALDLPLTTVIASVHEPSDFSGLPVVGDDPAEQGVPMAPPDWAVRLVRAGRGLLFLDELSTAPPAVQAALLRLVLERRIGALRLPPGVRIVAAANPRSSAADGWELSPPLANRFVHLQWTHDQDVVVRGLGGTWPRAALPSLDPGGLDGAVRYARRAVCAFLTARPGLVHRLPSGETRRGGAWPSPRSWEMTLCLIAFATAAGSSREVLSLLVRGTVGDGPGLELMASLDRMDLPDPETLLADPAGAVLPERGDLRQAVLDGVVAAVRKRPEKSRWDSAWALLARAMETGAPDVVVVPATTLATLRQQDWDIPASIERLAGAMSLSRRADRAADRAAARLAGTARTSGLEHHHHHH", "values": [{"measurement": "protein production", "result": "failed"}]}, {"sequence": "MQREKVDVLVIGAGPAGTVAASLVNKSGFKVKIVEKQKFPRFVIGESLLPRCMEHLDEAGFLDAVKAQGFQQKFGAKFVRGKEIADFNFSDQFSNGWNWTWQVPRGNFDKTLADEAARQGVDVEYEVGVTDIKFFGTDSVTTIEDINGNKREIEARFIIDASGYGRVIPRMFGLDKPSGFESRRTLFTHIKDVKRPVAAEMEGNRITAVVHKPKVWIWVIPFSNGNTSVGFVGEPSYFDEYTGTPEERMRAMIANEGHIAERFKSEEFLFEPRTIEGYAISASKLYGDGFVLTGNATEFLDPIFSSGATFAMESGSKGGKLAVQFLKGEEVNWEKDFVEHMMQGIDTFRSFVTGWYDGTLHAVFFAKNPDPDHKRMICSVLAGYVWDKNNPFVKKHNTILKTLAKVIQMGEEALEHHHHHH", "values": [{"measurement": "protein production", "result": "not failed"}]}, {"sequence": "MSAPTTFSVALHNETATAQLMADLALLVGPGDVITLTGDLGAGKTAAARAMIRYLADDEALEVPSPTFTLVQGYELPPFPVMHADLYRVEDESELEEIGLSPLPDATLVLIEWPERAPSALPEDRIDIALTHRPALGSNARAADITGYGKSAAQVARLKALREFLDASGYLDAMRRRMAGDASTRSYARLLRDDEIVILMNFPQRPDGAALYNGKSYSAAVHLAENVKPFVAIDEGLRAQGISAPAIHHADLDHGFLISEDFGSEGVIEGNPPRPIPERYEAATDVLAVLHGKTLPETLPLDGQSYAIPVFDTEAMLIEIGLMPEWYLPDRNAPLSEPKRAEFFAMWRELLKKPLAAPRTWIIRDYHSPNLIWLGMRTGIERVGVIDFQDTVLGPQSYDVVSLLQDARIDVPENLELTLLSRYIKARRAGDASFDPAGFAELYAIMSAQRNTRLLGTFARLNRRDGKPHYLRHQPRIWTYLQRSLAHPALSHLRDWYLANVPPPQRPSQEPAPEPPQGLEHHHHHH", "values": [{"measurement": "protein production", "result": "not failed"}]}, {"sequence": "MKNLKKKLLKLVKIFVIIFVCLAAFFVYIFIEPYWINEKTTTISDSDVPQNFEGKKIVFISDIHHGPYFERERVADLVRKVNELEPDIIILGGDYVSGDVGYIGACFEELSRLKADMGIFGVTGNHDEWTDYNLTVKCMENAGITVLSNRAEWLEIGDDKIKIAGVDWSTDWYFNSEPYVDPLIKDAEENDFVILVSHTPDLAEELTTDKVDLVLSGHTHGGQITFFGLWAPYVPSFYGQKYRTGIVKTDKTMALVSNGVGNTFLPIRFFARPQINIIILDHP", "values": [{"measurement": "protein production", "result": "failed"}]}, {"sequence": "MQSRLSKILRSSVVGVAVLALLAGCSNNADDTDADSTSTGNSAFPVSIEHEFGTTTIDDVPERVVTLGVTDADIVLALGTVPVGNTGYKFFENGLGPWTDELVEGKELTLLDSDSTPDLEQVAALEPDLIIGVSAGFDDVVYEQLSDIAPVVARPAGTAAYAVAREEATNLVARAMGQSEKGQELNEETDALIQAARDENPSFDGKTGTVILPYQGKYGAYLPGDARGQFLDSLGISLPEAVLSRDTGDSFFVDVPAESVKDVDGDVLLVLSNDENLDITAENPLFETLNVVQKDAVIVATTEERGAITYNSVLSVPFALEHLAPRIAEALK", "values": [{"measurement": "protein production", "result": "failed"}]}, {"sequence": "MQLIGDTPITYRRYSMSSSQNALVLIARILLSFIFIYSGFGKLTDPAGTAGMIAGAGMPAATALAYLAGLFELVAGLAILAGFQTKIAAWALAVFCVFTGLVFHSGTVAVPGWPEPALGWINTLNGIMMMKNITLAGAYILLATFGAGAYSVDAKRGFVAARA", "values": [{"measurement": "protein production", "result": "failed"}]}, {"sequence": "MGTIESYLTNSYNYIIFNFKKLCIGGLMSAIVGAMSGVTTAFIDLFMERANYDIMHIIMSFLIYFGIIFIIGLIVSAIIGGYNVRIMKTTVEGLNVAPDWNNITDLLYRGILYIVGLVLLNIIFYFIPAILFVFGIFSLYISKIIGAFLIIISILIFIISVISLWLYSKLAEVNYSVKGFYGFFEFKEIFKMIGIRYIILVIIIAIINFIISLIVVLPLNIIDIFISYSALANSILTIIYISIKGISYALSTFVDFYLGVFSIRAVALYYKDRKGIT", "values": [{"measurement": "protein production", "result": "failed"}]}, {"sequence": "MEPCELSANTVIAHPRALTDKMTLIRDAGPSKFQVFPTPISEQGDAYYDAKRQALYDHYHPLEISPVIPIDEKTKLMEEWWGKTHELLIEGGLTYDAIKKSVANSSIAFREGVSELFEFLEKKEIPVLIFSAGLADVIEEVTLKSISLLELLSYFCCLYNEYAFVAYSHSYQVLRQNLDRTFKNVKIVSNRMVFNDDGQLVSFKGKLIHVLNKNEHALDMAAPLHDRLGVDIGEEDEENVNMKERRNVLLMGDHLGDLRMSDGLDYETRISIGFL", "values": [{"measurement": "protein production", "result": "failed"}]}, {"sequence": "NGADVQVSNIDYRLSRKELQQLLQEAFARHGKVKSVELSPHTDYQLKAVVQMENLQDAIGAVNSLHRYKIGSKKILVSLATGA", "values": [{"measurement": "protein production", "result": "not failed"}]}, {"sequence": "MSPENKICMEQSEDGDLDAGDELFEEVDGDGKGEIFANRELLNIDHVPDENRIVGRDEHITELANEIGPAVTGSPPNSVILYGKTGSGKSLVANHVMERARREAQRRDRRLATVTVDCAQSRGEADTVQTIADKINRSTSGVTVPTRGISTNEYYNRLWQILGTEYDAALITLDEVDRLSDDDILMILSRAREAGKVDVPIGIISISNKVNFREQMTERVKSSLGHNEMIFDPYDGEQLRQILENRKDAFQEDILMPGVIPKTAALAAQRHGDARKAIRLLRHAGDYAKTNNIGTVKESHLELAQEQAEVERLKELISGLPPHSKYVLYALANLTDGTTNSNDWFRTTVIYDVYEEVCKTEATDTLTTDTIRGLLNELAFLEITESNQEHGGMGKGTYKEHRLLWDPNVVFKMNPGSAQVDTDR", "values": [{"measurement": "protein production", "result": "failed"}]}, {"sequence": "MHLKEILAQFSFFTAIPVKSSASLEEIAESSYISPIIVGISLGLIESVAYLILYRILGELTGIVLLGIIELLRGFNHLDGLLDLGDALMIRGNREKKIKALKDVEVGSGGIGLLLVYLSIQIVALLKLDFSLYTIFYLISSNVLSMSLSLYILSTISPIPESNLGRIFHDKLKGKSTILLLELIPFISLYNVIVFIIFYMIMYKICGSLGGSSGDIAGASITLSFPLFLITDEITNLNYSLLSILCYLFSHLH", "values": [{"measurement": "protein production", "result": "failed"}]}]}
